Values joined by “and” are separate entries in the source; they are usually repeats but may differ in a detail not shown here. Equal values may be shown once.
Assays:
[1] = system: anti-PAL-IgG; experiment: Immunogenicity of conjugates with different PEG molecular weights in rats: anti-PAL-IgG (ELISA); type: in vivo; conditions: for anti-PAL-IgG, x (average OD value of antibody detection by ELISA) / anti-PAL-IgG, Positive rate: 0.75 mg/kg s.c. once weekly
Method: Polyethylene glycol conjugates of phenylalanine lyase or its mutant with different structures and modifier molecular weights, namely PL20, PL24, and PL54, were prepared according to the method described in Example 2. The phenylalanine lyase in PL20 has the amino acid sequence as set forth in SEQ ID NO: 1, and the polyethylene glycol has a molecular weight of 20K. The phenylalanine lyase in PL24 has the amino acid sequence as set forth in SEQ ID NO: 6, and the polyethylene glycol has a molecular weight of 2K. The phenylalanine lyase in PL54 has the amino acid sequence as set forth in SEQ ID NO: 6, and the polyethylene glycol has a molecular weight of 5K.
To evaluate the immunogenicity of PL20, PL24, and PL54 in animals, normal rats were selected and divided into 3 groups, with 6 rats per group (3 males and 3 females). Subcutaneous administration was performed at a dose of 0.75 mg/kg with PL54 (average degree of modification 13.6, 1.27 U/mg), PL24 (average degree of modification 13.3, 0.96 U/mg), and PL20 (average degree of modification 7.6, 1.14 U/mg) for the three groups, respectively. Administration was repeated 7 times, once weekly. Blood samples were collected 7 days after each administration. Serum anti-PEG-IgG and anti-PAL4 protein antibodies were detected by ELISA (refer to Example 5 for details). In the table, "1-7" indicated 7 days after the first administration, and "7-7" indicated 7 days after the seventh administration. x represented the average OD value of antibody detection by ELISA, and the positive rate represented the ratio of the number of antibody-positive animals to the total number of animals in the group. Table 6: Antibody titers in rats after multiple administrations of polyethylene glycol conjugates with different molecular weights

[2] = parameters: species or system SD rats; conditions: rat, in vivo, sc, 2 mg/kg
Method: To evaluate PEGylated conjugates of phenylalanine lyase or its mutants with different average degrees of modification, the inventors divided SD rats into four groups (n=6 per group). The animals were subcutaneously injected with PL54-1 and PL54-5 (average degrees of modification: 10.54 and 13.60, respectively) and PL5-1 and PL5-5 (average degrees of modification: 8.2 and 10.53, respectively) from Table 3 of Example 2 at a dose of 2 mg/kg once a week for four doses. Blood samples were collected on D1 (Day 1), D3 (Day 3), and D7 (Day 7) after the first dose, as well as on D3 and D7 following each subsequent dose. The concentrations of PL54-1, PL54-5, PL5-1, and PL5-5 in rat serum were determined by sandwich ELISA to assess plasma drug concentration maintenance after multiple administrations. Anti-PEG-IgM/IgG antibody titers in rat serum from each group were measured using indirect ELISA (coating with PEG-BSA, adding positive rat anti-PEG Abs/test serum samples, followed by HRP-conjugated anti-rat IgM/IgG detection), while bridging ELISA (coating with PAL protein, adding positive sheep anti-PAL Abs/acidified serum samples, followed by biotin-labeled PAL detection) was also performed. The plasma drug concentration results are shown in FIG. 4, and the antibody detection results after administration were shown in FIG. 4 and FIG. 5.

[3] = Serum drug concentration after a single administration in phenylketonuria model mice (sandwich ELISA); type: in vivo; parameters: Blood drug concentration in serum: unit not given here; conditions: Pah^enu mice
From the text: (§1) Phenylalanine hydroxylase (PAH) was central to phenylalanine metabolism in animals, catalyzing the conversion of phenylalanine to tyrosine. Deficiency of this gene underlies phenylketonuria. […] Therefore, the homozygous mouse carrying the missense mutation F263S can be used as an animal model for phenylketonuria (referred to as the Pah^enu mouse or model mouse) in this drug study.
To evaluate the polyethylene glycol conjugate PL54 of the site-saturation modified phenylalanine lyase mutant, six Pah^enu mice were assigned to three groups of two mice each. PL54-5 (average degree of modification 13.60, specific enzyme activity 1.27 U/mg) from Table 3 of Example 2 was administered to the phenylketonuria animal model mice at low, medium, and high doses of 0.5 mg/kg, 1.5 mg/kg, and 4.5 mg/kg, respectively, via subcutaneous injection. Blood samples were collected from mice in each group at 1 h before administration and at 1, 3, 5, 7, 10, and 14 days after administration, respectively, and the content of PL54-5 in serum was detected by sandwich ELISA (for details, see Example 5).

[4] = system: serum phenylalanine; experiment: Serum phenylalanine concentration after multiple administrations in phenylketonuria model mice (LC-MS/MS); type: in vivo; conditions: Pah^enu mice
From the text: as §1
To evaluate the polyethylene glycol conjugate PL54 of site-saturation modified phenylalanine lyase mutant, […] Pah^enu mice were allocated into five groups (four experimental groups and one control group), with six mice in each group. PL54-5 (average degree of modification 13.60, specific enzyme activity 1.27 U/mg) from Table 3 of Example 2 was administered to phenylketonuria animal model mice at low, medium, and high doses of 0.5 mg/kg, 1.5 mg/kg, and 4.5 mg/kg, respectively, via subcutaneous injection. The high-dose group of 4.5 mg/kg also included a group receiving intramuscular administration, once per week. The control group was administered phosphate buffered saline as a placebo subcutaneously once weekly. Blood samples were collected from mice in each group at 1 h before administration and at 2, 5, and 7 days after administration for each group. The content of PL54-5 in serum, changes in phenylalanine concentration (Reference: Judy Peat et al., Determination of Phenylalanine and Tyrosine by High Performance Liquid Chromatography-Tandem Mass Spectrometry), and Anti-PEG-IgM/IgG antibody titers (see Example 5 for details) were detected by sandwich ELISA (see Example 5 for details), and their pharmacokinetics were evaluated, see FIG. 6 to FIG.9 for details.

B1: PL54-5: polyethylene glycol conjugate of PAL4 (SEQ ID NO: 6) with PEG-SPA-5K, molar ratio 1:16, average degree of modification 13.60 (conjugate)
chain: MKTLSQAQSKTSSQQFSFTGNSSANVIIGNQKLTINDVARVARNGTLVSLTNNTDILQGIQASCDYINNAVKSGEPIYGVTSGFGGMANVAISREQASELQTNLVWFLKTGAGNKLPLADVRAAMLLRANSHMRGASGIRLELIKRMEIFLNAGVTPYVYEFGSIGASGDLVPLSYITGSLIGLDPSFKVDFNGKEMDAPTALRQLNLSPLTLLPKEGLAMMNGTSVMTGIAANCVYDTKILTAIAMGVHALDIQALNGTNQSFHPFIHNSKPHPGQLWAADQMISLLANSQLVRDELDGKHDYRDHELIQDRYSLRCLPQYLGPIVDGISQIAKQIEIEINSVTDNPLIDVDNQASYHGGNFLGQYVGMGMDHLRYYIGLLAKHLDVQIALLASPEFSNGLPPSLLGNRERKVNMGLKGLQICGNSIMPLLTFYGNSIADRFPTHAEQFNQNINSQGYTSATLARKSVDIFQNYVAIALMFGVQAVDLRTYKKTGHYDARASLSPATERLYSAVRHVVGQKPTSDRPYIWNDNEQGLDEHIAKISADIAAGGVIVQAVQDILPSLH
modifications: PEG-SPA-5K conjugate, ~13.6 PEG per molecule
In the case of B1, the “anti-PAL-IgG, x (average OD value of antibody detection by ELISA)” value ([1]; 1-7 (7 days after the first administration)) is reported as “x=0.107”, the “anti-PAL-IgG, Positive rate” value ([1]; 1-7, antibody-positive animals / animals in the group) is reported as “Positive rate: 2/6” and the “anti-PAL-IgG, x (average OD value of antibody detection by ELISA)” value ([1]; 7-7 (7 days after the seventh administration)) is reported as “x=0.089”. The “anti-PAL-IgG, Positive rate” value ([1]; 7-7, antibody-positive animals / animals in the group) was “Positive rate: 0/6”, the anti-PAL4 protein antibody ([1]; 7 days after seven doses) was “No anti-PAL4 protein antibody was detected” and the plasma drug maintenance [2] was “superior to that of PL5-1 and PL5-5”. The “Blood drug concentration in serum” value ([3]; single 0.5 mg/kg s.c., 1-D1, dilution 1:500) was 0.3, the “Blood drug concentration in serum” value ([3]; single 0.5 mg/kg s.c., 1-D3, dilution 1:500) was 2.4 and the “Blood drug concentration in serum” value ([3]; single 0.5 mg/kg s.c., 1-D5, dilution 1:500) was 0.9. The “Blood drug concentration in serum” value ([3]; single 0.5 mg/kg s.c., 1-D7, dilution 1:500) was 0.2, the “Blood drug concentration in serum” value ([3]; single 0.5 mg/kg s.c., 1-D10, dilution 1:500) was 0.1 and the “Blood drug concentration in serum” value ([3]; single 0.5 mg/kg s.c., D0 (1 h before administration), dilution 1:50) was 0. The “Blood drug concentration in serum” value ([3]; single 1.5mg/kg s.c., 1-D1, dilution 1:500, 1.5 mg/kg) was 0.5 and 0.6, the “Blood drug concentration in serum” value ([3]; single 1.5mg/kg s.c., 1-D3, dilution 1:500, 1.5 mg/kg) was 2.7 and 2.2 and the “Blood drug concentration in serum” value ([3]; single 1.5mg/kg s.c., 1-D5, dilution 1:500) was 0.9. For the same molecule, the “Blood drug concentration in serum” value ([3]; single 1.5mg/kg s.c., 1-D7, dilution 1:500, 1.5 mg/kg) was 0.4 and 0.3, the “Blood drug concentration in serum” value ([3]; single 1.5mg/kg s.c., D0 (1 h before administration), dilution 1:50) was 0 and the “Blood drug concentration in serum” value ([3]; single 4.5 mg/kg s.c., 1-D1, dilution 1:500, 4.5 mg/kg) was 1.6 and 0.8. The “Blood drug concentration in serum” value ([3]; single 4.5 mg/kg s.c., 1-D3, dilution 1:500, 4.5 mg/kg) was 2.6 and 2.9, the “Blood drug concentration in serum” value ([3]; single 4.5 mg/kg s.c., 1-D5, dilution 1:500, 4.5 mg/kg) was 1.9 and 1.2 and the “Blood drug concentration in serum” value ([3]; single 4.5 mg/kg s.c., 1-D7, dilution 1:500, 4.5 mg/kg) was 0.8 and 0.4. The “Blood drug concentration in serum” value ([3]; single 4.5 mg/kg s.c., 1-D10, dilution 1:500) was 0, the “Blood drug concentration in serum” value ([3]; single 4.5 mg/kg s.c., 1-D14, dilution 1:500) was 0.2 and the “Blood drug concentration in serum” value ([3]; single 4.5 mg/kg s.c., D0 (1 h before administration), dilution 1:50) was 0. The “plasma drug concentration in relation to the administration dose” value ([3]; single s.c. injection, 0.5, 1.5 and 4.5 mg/kg) was “directly proportional to the administration dose”, the “efficacy after intramuscular administration” value ([4]; 4.5 mg/kg intramuscular once per week) was “consistent with that after subcutaneous administration” and the serum phenylalanine ([4]; high dose 4.5 mg/kg s.c., within 2 days after the first administration) was “below the method detection limit”. For the same molecule, the “reduction of serum phenylalanine levels” value ([4]; high-dose group 4.5 mg/kg s.c., after five repeated administrations, within 2 days) was “more than 90%” and the “decrease of serum phenylalanine levels” value ([4]; medium-dose group 1.5 mg/kg s.c., after five repeated administrations) was “approximately 75%”.

— patent EP4711453A1, “PHENYLALANINE LYASE MUTANT, AND CONJUGATE THEREOF OR PHARMACEUTICALLY ACCEPTABLE SALT THEREOF” (Peg-Bio Biopharm Co., Ltd. (Chongqing), priority 2023, dated 2024)
